In publication PMC12452654:

What was measured:
[1] = target: HtpG from Synechococcus elongatus PCC 7942 (Synechococcus elongatus PCC 7942); assay: SEC; Superdex 200 16/60, 40 mM HEPES-KOH pH 7.5, 150 mM KCl, 0.5 mM TCEP, 0.5 mL/min; peak at 65 mL, close to the 158 kDa IgG standard
[2] = target: HtpG from Synechococcus elongatus PCC 7942 (Synechococcus elongatus PCC 7942); assay: AUC; sedimentation velocity, 45,000 rpm, 20 °C, 4 µM seHtpG, 40 mM HEPES-KOH pH 7.5, 150 mM KCl, 1 mM β-mercaptoethanol, absorbance at 280 nm

stoichiometry N [1]: 2 | stoichiometry N [2]: 2
Substance: HtpG from Synechococcus elongatus PCC 7942 (natural protein)
